Measurements taken from paper PMC7766583 (International Journal of Molecular Sciences, 2020).

What was measured:
amyloid beta 1-42 = molecular target: T1, amyloid beta 1-42 (human, UniProt P05067 672-713); assay: SPR; cypD captured on an amine-coupled anti-cypD antibody; oligomeric Aβ (Preparation A) injected at 1 μM for 5 min; running buffer 10 mM HEPES pH 7.4, 5 mM Na+, BSA 200 μg/mL, K+ 0-500 mM, Mg2+ 0-50 mM; 25 °C, 20 µL/min; reference-compensated response 5 min after return to buffer; details: both partners purified
T1 construct: amyloid beta fragment 1-42 (42 amino acids), human, synthetic; numbers count on: the Aβ peptide; Used in an oligomeric form (Preparation A) and a monomeric form (Preparation B); The two forms are told apart by the assay; also called Aβ_(1–42); Aβ; source: synthetic peptide; bought: AnaSpec
T1 sequence (P05067 672-713): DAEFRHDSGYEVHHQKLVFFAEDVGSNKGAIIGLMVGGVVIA

amyloid beta 1-40 = molecular target: T2, amyloid beta 1-40 (human, UniProt P05067 672-711); assay: SPR; cypD captured on an amine-coupled anti-cypD antibody; monomeric Aβ (Preparation C for Aβ1-40, Preparation B for Aβ1-42) injected at 1 μM for 5 min; running buffer 10 mM HEPES pH 7.4, 5 mM Na+, BSA 200 μg/mL, K+ 0-500 mM, Mg2+ 0-50 mM; 25 °C, 20 µL/min; reference-compensated response 5 min after return to buffer; details: both partners purified
T2 construct: amyloid beta fragment 1-40 (40 amino acids), human, synthetic; numbers count on: the Aβ peptide; Used in a monomeric form (Preparation C) and an oligomeric form (Preparation A); The two forms are told apart by the assay; also called Aβ_(1–40); Aβ; source: synthetic peptide; bought: AnaSpec
T2 sequence (P05067 672-711): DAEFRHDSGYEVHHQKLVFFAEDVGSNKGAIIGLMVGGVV

B1: cyclophilin D (enzyme)
chain: not shown
notes: cyclophilin D (cypD), human, recombinant, bought from Fitzgerald; also called cypD; source: bought: Fitzgerald (human, recombinant)
binding result (amyloid beta 1-42): binds | binding result (amyloid beta 1-40): binds
